Reference: US6855270B2, “Nanoscintillation systems for aqueous-based liquid scintillation counting” (The University of Kentucky Research Foundation, priority 2001, dated 2005)

Tests used:
[1] = particle / droplet size by photon correlation spectroscopy (Coulter N4 Plus); assay type: physicochemical
Procedure: To determine the existence of an oil-in-water microemulsion window for the microemulsion precursor, exactly two (2) milligrams of emulsifying wax were weighed accurately into ten separate 7-mL glass vials and melted at 50° C. on a temperature calibrated magnetic hot plate. Water (0.2 μm filtered) was then added (750-1000 μL) to form a homogeneous milky slurry in the stirring water at 50° C. To form the microemulsion precursor, the surfactant polyoxy 20 stearyl ether (100 mM) in water was added (0-250 μL) so that the final surfactant concentration ranged from 0 mM to 25 mM in the ten vials. The microemulsion precursor was then removed from heat (52-54° C.) and allowed to cool to 25° C. while stirring. […] Thus, an apparent microemulsion window was defined. One hundred (100) μL of each cooled system was taken and diluted with 900 μL water. The particle size of the diluted solid nanoparticles was determined using a Coulter N4 Plus Sub-Micron Particle Sizer at 20° C. by scattering light at 90° for 120 seconds. The particle sizes of systems with no surfactant added could not be determined since the systems contained precipitates that were greater than 3000 nm in diameter. […] To determine if the measured droplet sizes in either the microemulsion nanotemplate or the cured solid nanoparticles were due to the presence of surfactant micelles, samples were made as described above with no emulsifying wax and with final surfactant concentrations ranging from 0 mM to 100 mM in water. […] It is likely that the relatively heterogeneous nature of the polymeric surfactant makes the determination of its CMC difficult using conventional techniques. Photon correlation spectroscopy, using a Coulter N4 Plus Submicron Particle Sizer, was used to determine the existence and the size of the surfactant micelles.
Preparation of polyoxyethylene 2 stearyl ether nanoparticles. Three separate samples of polyoxyethylene 2 stearyl ether nanoparticles were engineered using the following process. Polyoxyethylene 2 stearyl ether (2 mg) was melted at 50-55° C. and dispersed in 970 microliters of water at the same temperature. Thirty microliters of solution of Tween 80 (10% v/v in water) was added to produce a clear oil-in-water microemulsion at approximately 55° C. The oil droplet size of liquid polyoxyethylene 2 stearyl ether was measured by photon correlation spectroscopy to be 22.2±1.8 nanometers at approximately 55° C. Polyoxyethylene 2 stearyl ether nanoparticles were cured by three different methods as follows: Method A) cooling of the undiluted oil-in-water microemulsion at 55° C. to room temperature while stirring, Method B) cooling of the oil-in-water microemulsion at 55° C. by placing undiluted in a refrigerator at 4° C., and Method C) diluting (1/10) the oil-in-water microemulsion at 55° C. with water at 4° C. […] Further, Method A illustrated a key advantage of simply allowing the oil-in-water microemulsion to cool to room temperature to form useful solid nanoparticles. This method allows for rapid, reproducible, and cost-effective method to engineer useful nanoparticles.
Preparation of Emulsifying Wax nanoparticles. Three separate samples of emulsifying wax nanoparticles were engineered using the following process. Emulsifying wax (2 mg) was melted at 50-55° C. and dispersed in 970 microliters of water at the same temperature. […] The oil droplet size of liquid emulsifying wax was measured by photon correlation spectroscopy to be 24.5±0.4 nanometers at approximately 55° C. […]

[2] = cited from earlier work
[3] = ASF-pal alone in water, 1340 μg/mL

For `CC(=O)C=C(C)[O-].CC(=O)C=C(C)[O-].CC(=O)C=C(C)[O-].[Gd+3]` [GdAcAc, Gadolinium acetylacetonate], the “diameter of nanoparticles entrapping GdAcAc” value [1] was “about 50 nanometers”.
In the case of `c1ccc(-c2cnc(-c3ccccc3)o2)cc1` [PPO, 2,5-diphenyloxazole], the “classification of water solubility” value [2] is given as “water-insoluble”.
With “ASF-pal: Asialofetuin derivatized with about 12 palmitate arms per molecule; ligand” the “effect of added ASF-pal on particle size of cured solid nanoparticles” value ([1]; 200 μg nanoparticles per 1 mL) was “only a small effect”, the “size of micelles formed” value ([1]; ASF-pal alone in water, 67 μg/mL) was 3-15 nm and the “size of larger aggregates formed” value [1, 3] was 40-300 nm. For the same compound, the “size of micelles formed” value [1, 3] was 3-10 nm.
